{"source": "patent US20250326867A1", "about": "“De novo designed chlorophyll special pair proteins” (University of Washington, priority 2024, published 2025)", "proteins": {"B1": {"name": "D_3_114_3 (designed binder)", "chain": "SGSGSSDELFKWLATEAKMAITAAERLAGTDPELQEMVALIKKELEQAERTFRNGDKSEAMRQLLFVLMAANAVAAVAAAANMAGTDPELQEMVDRILKQLKEAIRTFQNGDQEEAMTQLAFVLLAAAAVFVVAWALILAGTDPELQEMVKQILEELKQAIETFARGDKEKALTQLLFVLWAAHAVAWIALAALLAGTDPRLLQQVKEILEKLKEAIETFQKGDEEQAFRQLAEVLAEAILVAIRAAKTN", "notes": "Designed homodimer subunit, after TEV cleavage"}, "B2": {"name": "D13_H11A (designed binder)", "chain": "SGSGSEEKEWQAMTLHLIFAIKILKEMLEEDPNDEEIKKILELLWQISKTQQDDPHNEEQKEWLMLLLLIIMALRLVQEMLKEDPNDEEIEKILELLKQILRTLREDPHNEEQKEWLILLLIIILLLDSVQEMLKEDPNDEEIEKILELLKQILRTLREDPHNEEQKQWLIQLINALILLLFIQEKLKEDPNDEEAEEELERLKEQLRRLRE", "notes": "as for B1"}, "B3": {"name": "D13_H11B (designed binder)", "chain": "B2 chain with L15A, F19Y, M65I, L69I, M72L, I118S, L121F, L125A", "notes": "as for B1"}, "B4": {"name": "D13_H11C (designed binder)", "chain": "B2 chain with Q11A, A12I, L15A, F19Y, I23V, L69G, M72L, I118A, L121V", "notes": "as for B1"}, "B5": {"name": "D_3_114_5 (designed binder)", "chain": "SGSGSSDFEFKMLATWAKMAITAAERAAGTDPELQEMVALIKKELEQAERTFRNGDKSEAMRQLEFVLTAANAVLAVALAANMAGTDPELQEMVDRILKQLKEAIRTFQNGDQEEAEDQLLFVLAAATAVAVVAWAKILAGTDPELQEMVKQILEELKQAIETWARGDKEKAATQLLFVMWAAHAVAAIALAANVAGTDPRLQQQVKEILEKLKEAIETFQKGDEEQAFRQLAEVLAEAMLVAIRALLTN", "notes": "as for B1"}, "B6": {"name": "D_3_114_4 (designed binder)", "chain": "SGSGSSDEEFKFLATMAKMAITAAERAAGTDPELQEMVALIKKELEQAERTFRNGDKSEAQRQLWFVWVAALAVAAVALAANAAGTDPELQEMVDRILKQLKEAIRTFQNGDQEEAETQLRFVLMAAAAVAVVALARLWAGTDPELQEMVKQILEELKQAIETFARGDKEKALTQLLFVLWAAHAVLWIAIAANLAGTDPRLQQQVKEILEKLKEAIETFQKGDEEQAFRQLAEVLAEAVLVALRARKTN", "notes": "as for B1"}, "B7": {"name": "tj79C2-H125A (designed binder)", "chain": "SGSGSREDELWARYTLLLAELAAERADIAAERTGDPRVRELARELKRLAQEAAEEVKRDPSSSDVYLALILIVMAIYMAVLALEAAERTGDPEVRELARELVRLAVEAAEEVQRNPSSSDVNKALLLIVHAIMAAVAALEAAERTGDPEVRELARELVRLAVEAAEEVQRNPSSKEVDMALLLIQIAILEAVLSLLRAERSGDPEKREKARERVREAVERAEEVQRDPSGW", "notes": "as for B1"}, "B8": {"name": "JA (designed binder)", "chain": "SGSGSWEEEAADKAIEIAEKVFRLKKSGTSEDEIAEEVAREISEVIRTLKESGSSEEVIALALLMIILGVVMALIANGVSIREQLDISATILYEVAREQGNEEALEAIEEITRLAEEIKEEGGSILAAHILTMAGLLVAALPSEEAAEVAKEIAKAVKAAVEAEKDGKSDEAMLALIRLILAIMAALFNRSKYSLEMVRRIAKEAEQLAEDAREGK", "notes": "as for B1"}, "B9": {"name": "D13_H60A (designed binder)", "chain": "SGSGSEEKEWMLLTAMLIMAIKTLKEMLEEDPNDEEIKKILELLWQISKTQQDDPHNEEQKEWLHLLLIIIMALRLVQEMLKEDPNDEEIEKILELLKQILRTLREDPHNEEQKEWLILLFIIIALLDSVQEMLKEDPNDEEIEKILELLKQILRTLREDPHNEEQKQWLIQLINALILLLFIQEKLKEDPNDEEAEEELERLKEQLRRLRE", "notes": "as for B1"}, "B10": {"name": "D13_H60B (designed binder)", "chain": "B9 chain with M11Q, A15W, M16L, A20I, L68A, I69A, M72L, E115A, I118L, F121V", "notes": "as for B1"}, "B11": {"name": "D_3_114_2 (designed binder)", "chain": "SGSGSSDEEFKWLATWAKMAITAAERAAGTDPELQEMVALIKKELEQAERTFRNGDKSEAWRQLVFVAIAAAAVLAVALAANAAGTDPELQEMVDRILKQLKEAIRTFQNGDQEEAETQLFFVLLAAAAVAVVALALIWAGTDPELQEMVKQILEELKQAIETFARGDKEKALTQLLFVLWAAHAVLWIAIAANTAGTDPRLQQQVKEILEKLKEAIETFQKGDEEQAFRQLAEVLAEAVLVALRAMKTN", "notes": "as for B1"}, "B12": {"name": "tj79C2-H121A (designed binder)", "chain": "SGSGSREDELIARYQILLAELAAERADIAAERTGDPRVRELARELKRLAQEAAEEVKRDPSSSDVNMALLLILLMIELAVRALEAAERTGDPEVRELARELVRLAVEAAEEVQRNPSSSDVWQALHLIMLAIWAAVAALEAAERTGDPEVRELARELVRLAVEAAEEVQRNPSSKEVYMALLLILIAILEAVLSLLRAERSGDPEKREKARERVREAVERAEEVQRDPSGW", "notes": "as for B1"}, "B13": {"name": "JB (designed binder)", "chain": "SGSTEELKKVLEDVRELAERAKESTDPEEALIIAILVIIRALAAVALDPSEEASTAVKIAIKIAEEVAKRVSDSELSASIALLIANLALVAAKAAGDEELSKLALRLAKLAAELAKDALRIAEERGNAWQAAIAVGVVVMVATILLALAKQLGSEEALKEALEVAEEAARLAKRQLELAERVGDPIVALAAVGHVFMVAMLLAQIARESGSEEAKERAKRVAEEAEELAERVYELMRREGK", "notes": "as for B1"}, "B14": {"name": "tj79C2-H69B (designed binder)", "chain": "SGSGSREDELHARYLILSAELAAERADIAAERTGDPRVRELARELKRLAQEAAEEVKRDPSSSDVNKALLLITHAILIAVAALEAAERTGDPEVRELARELVRLAVEAAEEVQRNPSSSDVNRALFLIMMAIMMAVKALEAAERTGDPEVRELARELVRLAVEAAEEVQRNPSSKEVDMALLLILIAILEAVLSLLRAERSGDPEKREKARERVREAVERAEEVQRDPSGW", "notes": "as for B1"}, "B15": {"name": "JC (designed binder)", "chain": "SGSTEKLKKVLERVRELAERAKESTSPEEALIIALLVSSLAIAAVMLDPSEEASTAVKIAIKIAEEVAKRVSDSQLSASIALSIASLALVAAEAAGDEELSKLALRLAKLAAELAKDALRIAEERGNAIDAAIAVGIVVMVAAILLQLAKLLGSEEALKEALEVAEEAARLAKRVLELAERVGDPQVALAAVGHVQMVAILLAQIARESGSEEAKERAERVARESMELAERVLELMRREGKW", "notes": "as for B1"}, "B16": {"name": "tj79C2-H132A (designed binder)", "chain": "SGSGSREDELRARLLILLAELAAETLDIIAERTGDPRVRELARELIRLLQEAAEEVKRDPSSSDVNEALKLIVEAIFMAIFILLFAEQTGDPEVRELARELVRLAVEAAEEVQRNPSSSDVNEALKLIIQAIILAVHALLAAEKTGDPEVRELARELVRLAVEAAEEVQRNPSSKEVDMALLLILIAILEAVLSLLRAQRSGDPEKREKARERVREAVERAEEVQRDPSGW", "notes": "as for B1"}, "B17": {"name": "tj79C2-H121B (designed binder)", "chain": "SGSGSREDELLARLLLLLAELAAERADIAAERTGDPRVRELARELKRLAQEAAEEVKRDPSSSDVLMALLLIIMAIEAAVEALEAAERTGDPEVRELARELVRLAVEAAEEVQRNPSSSDVWWALHLILFAIQLAVRALEAAERTGDPEVRELARELVRLAVEAAEEVQRNPSSKEVDMALLLILIAILEAVLSLLRAERSGDPEKREKARERVREAVERAEEVQRDPSGW", "notes": "as for B1"}, "B18": {"name": "tj79C2-H121C (designed binder)", "chain": "B17 chain with L16I, A68L, I73V, M74L, E77Q, W122F, W123M, R137Q, V168L, D178Q", "notes": "as for B1"}, "B19": {"name": "SP3x (designed binder)", "chain": "SGSSEELARESAEAAWRLAQASTRATLAMIRGDLKELAEALIELARAVQELARVAKEYGNDELAKTAALLAAHVAMLAIWVLIRAIKEGDDEVRELAKTAIKLASTAAKIVLDALPTAEEVRQITLLAKLAEEAADKKNEDSALAVGIAAIAVIIALWALEAAQKAGIEEAEKGARLLLKLAMDAARKKNPEEALAVLNAALDVSIALQLLQSAKRAGSEETRKLAEEMLRQALERARKKN", "notes": "as for B1"}, "B20": {"name": "SP3 (designed binder)", "chain": "SGSSEELARESAEAAWRLAQAGTRLMLAWIRGDLKEIAEALIELARAVQELARVAKEYGNDELAKTAALLAAHVAMLAILVLIRAIKEGDDEVRELAKTAIKLASTAAKIVLDALPTAEEVRQITLLAKLAEEAADKKNEDSALAVGIAAAAVLLALLALEAAQKAGIEEAEKGARLLLKLAMDAARKKNPEEALAVFNAALDVSIALKLLQSAKRAGSEETRKLAEEMLRQALERARK", "notes": "as for B1"}, "B21": {"name": "JId (designed binder)", "chain": "B20 chain with G22A, M26V, W29V, L69F, M76L, L80I, F198L, K209R", "notes": "as for B1"}, "B22": {"name": "JIa (designed binder)", "chain": "B20 chain with L25A, M26A, W29A, I37L, M76L, L155A, F198L, K209R", "notes": "as for B1"}, "B23": {"name": "JIe (designed binder)", "chain": "B20 chain with G22A, L25I, W29V, L69F, M76L, L80I, A151M, L155I, K209R", "notes": "as for B1"}, "B24": {"name": "JIc (designed binder)", "chain": "B20 chain with G22A, M26V, W29L, I37V, L69W, L80Y, A151I, L155I, F198L, K209R", "notes": "as for B1"}}, "note": "Substitutions are numbered along the chain they refer to."}
{"target": "the molecule itself", "test": "size-exclusion chromatography, self-association (homodimer)", "protocol": "FIG. 7. Size exclusion chromatography (SEC) traces of purified SP apo-proteins. Proteins were injected as 0.5 mL aliquots onto a Superdex™ 200 Increase 10/300 GL column (Cytiva Life Sciences). The narrow, isolated peaks indicate that the samples contain monodisperse protein. Running buffer was 150 mM NaCl, 10 mM Tris at pH 8. Proteins were purified by Ni-NTA and one round of SEC prior to collecting the data shown.\nProteins were purified by Ni-NTA and size-exclusion chromatography (SEC) (FIG. 7). […] A slightly lower predicted radius of gyration (Rg) value compared to experimental SAXS data is likely due to a dense hydration shell around the highly charged SP proteins (Svergun et al. 1998; Kim et al. 2016). The far ultraviolet (UV) circular dichroism (CD) spectra of three SP proteins that expressed in high yield (≥140 mg/L) show the proteins are highly α-helical with and without the synthetic Chl a derivative, Zn pheophorbide a methyl ester (ZnPPaM). Thermal denaturation curves monitored by the CD signal at 222 nm indicate that all three proteins are highly thermostable in the apo- and holo-states (FIG. 2)."}
{"protein": "B1", "binding result": "binds"}
{"protein": "B2", "binding result": "binds"}
{"protein": "B3", "binding result": "binds"}
{"protein": "B4", "binding result": "binds"}
{"protein": "B5", "binding result": "binds"}
{"protein": "B6", "binding result": "binds"}
{"protein": "B7", "binding result": "binds"}
{"protein": "B8", "binding result": "binds"}
{"protein": "B9", "binding result": "binds"}
{"protein": "B10", "binding result": "binds"}
{"protein": "B11", "binding result": "binds"}
{"protein": "B12", "binding result": "binds"}
{"protein": "B13", "binding result": "binds"}
{"protein": "B14", "binding result": "binds"}
{"protein": "B15", "binding result": "binds"}
{"protein": "B16", "binding result": "binds"}
{"protein": "B17", "binding result": "binds"}
{"protein": "B18", "binding result": "binds"}
{"protein": "B19", "binding result": "binds"}
{"protein": "B20", "binding result": "binds"}
{"protein": "B21", "binding result": "binds"}
{"protein": "B22", "binding result": "binds"}
{"protein": "B23", "binding result": "binds"}
{"protein": "B24", "binding result": "binds"}
